Reference: the Immune Epitope Database (IEDB)

Columns and labels:
HLA-B*40:01 [1] = assay: IEDB peptide-MHC binding, purified MHC/competitive/radioactivity; filed as Kd, often an IC50 or EC50 that approximates it; ≥ and ≤ were set here for values at or beyond the usual limits of such assays
HLA-B*51:01 [2] = assay: as above
HLA-B*07:02 = assay: as above
HLA-A*24:03 = assay: IEDB peptide-MHC binding, purified MHC/direct/fluorescence; filed as Kd, often an IC50 or EC50 that approximates it; ≥ and ≤ were set here for values at or beyond the usual limits of such assays
HLA-B*53:01 = assay: IEDB peptide-MHC binding, purified MHC/competitive/radioactivity; filed as Kd, often an IC50 or EC50 that approximates it; ≥ and ≤ were set here for values at or beyond the usual limits of such assays
HLA-A*30:01 = assay: as above
HLA-B*46:01 = assay: IEDB peptide-MHC binding, purified MHC/direct/fluorescence; filed as Kd, often an IC50 or EC50 that approximates it; ≥ and ≤ were set here for values at or beyond the usual limits of such assays
HLA-A*29:02 = assay: IEDB peptide-MHC binding, purified MHC/competitive/radioactivity; filed as Kd, often an IC50 or EC50 that approximates it; ≥ and ≤ were set here for values at or beyond the usual limits of such assays
HLA-A*26:01 = assay: as above
HLA-A*30:02 = assay: as above
HLA-A*32:01 = assay: as above
HLA-A*01:01 = assay: as above
HLA-B*15:01 = assay: as above
HLA-B*35:01 = assay: as above
HLA-B*44:03 = assay: as above
HLA-B*44:02 = assay: as above
HLA-B*40:01 [3] = assay: IEDB peptide-MHC binding, purified MHC/direct/fluorescence; filed as Kd, often an IC50 or EC50 that approximates it; ≥ and ≤ were set here for values at or beyond the usual limits of such assays; conditions: source organism: Mammarenavirus lassaense
HLA-B*18:01 = assay: as above; conditions: source organism: Mammarenavirus lassaense
HLA-B*51:01 [4] = assay: IEDB peptide-MHC binding, purified MHC/competitive/fluorescence; filed as Kd, often an IC50 or EC50 that approximates it; ≥ and ≤ were set here for values at or beyond the usual limits of such assays
HLA-A*23:01 = assay: IEDB peptide-MHC binding, purified MHC/competitive/radioactivity; filed as Kd, often an IC50 or EC50 that approximates it; ≥ and ≤ were set here for values at or beyond the usual limits of such assays; conditions: source organism: Dengue virus 1 Brazil/97-11/1997
HLA-A*24:02 = assay: as above; conditions: source organism: Dengue virus 1 Brazil/97-11/1997
[5] = source organism: Dengue virus 3 Martinique/1243/1999
[6] = source organism: Dengue virus 4 Philippines/H241/1956
[7] = source organism: Vaccinia virus WR
[8] = source organism: Lassa virus Josiah
[9] = source organism: Dengue virus 1 Brazil/97-11/1997
[10] = source organism: Dengue virus 1 Singapore/S275/1990
[11] = source organism: Dengue virus 4 Dominica/814669/1981
[12] = source organism: Dengue virus 2 Jamaica/1409/1983
[13] = source organism: Lymphocytic choriomeningitis virus (strain Armstrong)

Sequence: WENNIKLTVV
- Kd (HLA-B*40:01 [1]; [5]): 443 nM

Sequence: LALFLAHYI
- Kd (HLA-B*51:01 [2]; [5]): 342 nM

Sequence: TPRSPSVEV
- Kd (HLA-B*51:01 [2]; [6]): 538 nM
- Kd (HLA-B*07:02; [6]): 2.58 nM

Sequence: GYAGTLQSL
- Kd (HLA-A*24:03; source organism: Mycobacterium tuberculosis variant bovis): 0.9 nM

Sequence: CPLLVNTEPE
- Kd (HLA-B*53:01; [6]): 1650 nM

Sequence: RTKDTRIKA
- Kd (HLA-A*30:01; [7]): 0.196 nM

Sequence: YQPEREKVY
- Kd (HLA-B*46:01; source organism: West Nile virus): ≥ 20000 nM

Sequence: SQEAEFTGY
- Kd (HLA-B*46:01; source organism: Yellow fever virus): ≥ 20000 nM

Sequence: DIMGIPYCNY
- Kd (HLA-A*29:02; [8]): 105 nM
- Kd (HLA-A*26:01; [8]): 541 nM
- Kd (HLA-A*30:02; [8]): 444 nM
- Kd (HLA-A*30:01; [8]): ≥ 70400 nM
- Kd (HLA-A*32:01; [8]): ≥ 69900 nM
- Kd (HLA-A*01:01; [8]): ≥ 28900 nM

Sequence: KEYCVECYM
- Kd (HLA-B*15:01; [7]): 4620 nM

Sequence: GPGHEEPVPM
- Kd (HLA-B*35:01; [5]): 7200 nM

Sequence: CWLVSNGSY
- Kd (HLA-A*29:02; [8]): 543 nM
- Kd (HLA-A*26:01; [8]): ≥ 34400 nM
- Kd (HLA-A*30:02; [8]): 6.3 nM
- Kd (HLA-A*30:01; [8]): 16900 nM
- Kd (HLA-A*32:01; [8]): 18800 nM
- Kd (HLA-A*01:01; [8]): 13900 nM

Sequence: KEGDQYVYM
- Kd (HLA-B*40:01 [1]; [9]): 397 nM

Sequence: KLRPKWLDA
- Kd (HLA-A*30:01; [6]): 32.7 nM

Sequence: IPKIYGGPI
- Kd (HLA-B*51:01 [2]; [10]): 630 nM
- Kd (HLA-B*07:02; [10]): 14.2 nM

Sequence: MELIDGISL
- Kd (HLA-B*44:03; [11]): 226 nM
- Kd (HLA-B*44:02; [11]): 375 nM
- Kd (HLA-B*40:01 [1]; [11]): 2.29 nM

Sequence: SPKRLATAIA
- Kd (HLA-B*07:02; [5]): 34.1 nM

Sequence: FIRMLILNF
- Kd (HLA-B*15:01; source organism: Vaccinia virus Copenhagen): 7450 nM

Sequence: SLVMLLVHY
- Kd (HLA-A*30:02; [6]): 1600 nM
- Kd (HLA-B*15:01; [6]): 419 nM

Sequence: SENEVKLTI
- Kd (HLA-B*44:03; [12]): 14.1 nM
- Kd (HLA-B*44:02; [12]): 0.814 nM
- Kd (HLA-B*40:01 [1]; [12]): 373 nM

Sequence: YFHAELNYL
- Kd (HLA-A*24:03; source organism: Vibrio vulnificus): 3.7 nM

Sequence: TPQDNQLTYV
- Kd (HLA-B*51:01 [2]; [12]): 16400 nM
- Kd (HLA-B*07:02; [12]): 1330 nM

Sequence: GVYPLSIPAT
- Kd (HLA-A*30:01; [10]): 1900 nM

Sequence: MEGLKLLSL
- Kd (HLA-B*40:01 [3]): 160 nM
- Kd (HLA-B*18:01): 222 nM

Sequence: ITNELNYVLW
- Kd (HLA-B*53:01; [6]): 483 nM

Sequence: RIKQQGIFG
- Kd (HLA-A*30:01; [5]): 19.9 nM

Sequence: CPLNQLEQF
- Kd (HLA-B*51:01 [4]; source organism: Entamoeba histolytica HM-1:IMSS): ≥ 20000 nM

Sequence: HAIVINPFV
- Kd (HLA-A*30:01; [7]): 221 nM

Sequence: SQHNHRPGY
- Kd (HLA-A*30:02; [5]): 28.7 nM
- Kd (HLA-B*15:01; [5]): 91.2 nM

Sequence: YPYSDDLTI
- Kd (HLA-B*51:01 [4]; source organism: Escherichia coli K-12): 281 nM

Sequence: APTRVVAAEM
- Kd (HLA-B*35:01; [5]): 20.3 nM

Sequence: IWGRKSWPLN
- Kd (HLA-A*30:01; [9]): 2050 nM

Sequence: TPRGAVMDII
- Kd (HLA-B*51:01 [2]; [11]): 1350 nM
- Kd (HLA-B*07:02; [11]): 8.05 nM

Sequence: KIRCEITSF
- Kd (HLA-B*15:01; [7]): 4.28 nM

Sequence: MATFKMRPMF
- Kd (HLA-A*30:01; [9]): 1790 nM

Sequence: ERRYVNVHF
- Kd (HLA-B*15:01; [7]): 7380 nM

Sequence: KEISNMLNIM
- Kd (HLA-B*40:01 [1]; [10]): 8.34 nM

Sequence: EPKEGTKKLM
- Kd (HLA-B*35:01; [12]): ≥ 54400 nM

Sequence: MEKASFIEV
- Kd (HLA-B*44:02; [12]): 320 nM
- Kd (HLA-B*40:01 [1]; [12]): 1210 nM

Sequence: KLITQFETY
- Kd (HLA-A*30:02; [5]): 7780 nM
- Kd (HLA-B*15:01; [5]): 20.2 nM
- Kd (HLA-A*32:01; [5]): 202 nM

Sequence: IMMLKLLTDF
- Kd (HLA-B*15:01; source organism: Dengue virus 1 Nauru/West Pac/1974): 18.8 nM

Sequence: KLSHSDYEY
- Kd (HLA-A*29:02; [13]): 1260 nM
- Kd (HLA-A*26:01; [13]): ≥ 77900 nM
- Kd (HLA-A*30:02; [13]): 22.5 nM
- Kd (HLA-A*30:01; [13]): ≥ 24200 nM
- Kd (HLA-A*32:01; [13]): 6390 nM
- Kd (HLA-A*01:01; [13]): 2580 nM

Sequence: VTNIELEPPF
- Kd (HLA-A*30:01; [6]): 468 nM

Sequence: SEIRWEESF
- Kd (HLA-B*15:01; [7]): 46.9 nM

Sequence: YNNFYFYSF
- Kd (HLA-B*15:01; [7]): 1460 nM

Sequence: EPIPMATYGW
- Kd (HLA-B*53:01; [9]): 13.2 nM
- Kd (HLA-A*26:01; [9]): ≥ 69700 nM

Sequence: FQYSDRRWCF
- Kd (HLA-B*15:01; [9]): 3.88 nM
- Kd (HLA-A*23:01): 272 nM
- Kd (HLA-A*24:02): 2480 nM

Sequence: IPEGRVIDL
- Kd (HLA-B*07:02; [5]): 140 nM

Sequence: IPYDPKFEK
- Kd (HLA-B*51:01 [2]; [12]): 2200 nM
